Sequences and labels used below:
B1: Pre-mRNA-splicing factor SPF27: potential XIAP substrate (protein, UniProt O75934 2-225, looked up)
Pre-mRNA-splicing factor SPF27: AGTGLVAGEVVVDALPYFDQGYEAPGVREAAAALVEEETRRYRPTKNYLSYLTAPDYSAFETDIMRNEFERLAARQPIELLSMKRYELPAPSSGQKNDITAWQECVNNSMAQLEHQAVRIENLELMSQHGCNAWKVYNENLVHMIEHAQKELQKLRKHIQDLNWQRKNMQLTAGSKLREMESNWVSLVSKNYEIERTIVQLENEIYQIKQQHGEANKENIRQDF
B2: SMAC/Diablo homolog, mitochondrial: known IAP substrate (protein, UniProt Q9NR28 22-239, looked up)
Diablo IAP-binding …: LCVPVVANFKKRCFSELIRPWHKTVTIGFGVTLCAVPIAQKSEPHSLSSEALMRRAVSLVTDSTSTFLSQTTYALIEAITEYTKAVYTLTSLYRQYTSLLGKMNSEEEDEVWQVIIGARAEMTSKHQEYLKLETTWMTAVGLSEMAAEAAYQTGADQASITARNHIQLVKLQVEEVHQLSRKAETKLAEAQIEELRQKTQEEGEERAESEQEAYLRED
B3: Acetyl-CoA acetyltransferase, mitochondrial: potential cIAP1 substrate (protein, UniProt P24752 34-427, looked up)
Acetyl-CoA acetyltransferase, …: VSKPTLKEVVIVSATRTPIGSFLGSLSLLPATKLGSIAIQGAIEKAGIPKEEVKEAYMGNVLQGGEGQAPTRQAVLGAGLPISTPCTTINKVCASGMKAIMMASQSLMCGHQDVMVAGGMESMSNVPYVMNRGSTPYGGVKLEDLIVKDGLTDVYNKIHMGSCAENTAKKLNIARNEQDAYAINSYTRSKAAWEAGKFGNEVIPVTVTVKGQPDVVVKEDEEYKRVDFSKVPKLKTVFQKENGTVTAANASTLNDGAAALVLMTADAAKRLNVTPLARIVAFADAAVEPIDFPIAPVYAASMVLKDVGLKKEDIAMWEVNEAFSLVVLANIKMLEIDPQKVNINGGAVSLGHPIGMSGARIVGHLTHALKQGEYGLASICNGGGGASAMLIQKL
B4: Malate dehydrogenase, mitochondrial: potential cIAP1 substrate (protein, UniProt P40926 25-338, looked up)
Malate dehydrogenase, …: AKVAVLGASGGIGQPLSLLLKNSPLVSRLTLYDIAHTPGVAADLSHIETKAAVKGYLGPEQLPDCLKGCDVVVIPAGVPRKPGMTRDDLFNTNATIVATLTAACAQHCPEAMICVIANPVNSTIPITAEVFKKHGVYNPNKIFGVTTLDIVRANTFVAELKGLDPARVNVPVIGGHAGKTIIPLISQCTPKVDFPQDQLTALTGRIQEAGTEVVKAKAGAGSATLSMAYAGARFVFSLVDAMNGKEGVVECSFVKSQETECTYFSTPLLLGKKGIEKNLGIGKVSSFEEKMISDAIPELKASIKKGEDFVKTLK
B5: Medium-chain specific acyl-CoA dehydrogenase, mitochondrial: potential cIAP1 substrate (protein, UniProt P11310 26-421, looked up)
Medium-chain specific …: KANRQREPGLGFSFEFTEQQKEFQATARKFAREEIIPVAAEYDKTGEYPVPLIRRAWELGLMNTHIPENCGGLGLGTFDACLISEELAYGCTGVQTAIEGNSLGQMPIIIAGNDQQKKKYLGRMTEEPLMCAYCVTEPGAGSDVAGIKTKAEKKGDEYIINGQKMWITNGGKANWYFLLARSDPDPKAPANKAFTGFIVEADTPGIQIGRKELNMGQRCSDTRGIVFEDVKVPKENVLIGDGAGFKVAMGAFDKTRPVVAAGAVGLAQRALDEATKYALERKTFGKLLVEHQAISFMLAEMAMKVELARMSYQRAAWEVDSGRRNTYYASIAKAFAGDIANQLATDAVQILGGNGFNTEYPVEKLMRDAKIYQIYEGTSQIQRLIVAREHIDKYKN
B6: 3-hydroxyacyl-CoA dehydrogenase type-2: potential cIAP1 substrate (protein, UniProt Q99714 2-261, looked up)
3-hydroxyacyl-CoA …: AAACRSVKGLVAVITGGASGLGLATAERLVGQGASAVLLDLPNSGGEAQAKKLGNNCVFAPADVTSEKDVQTALALAKGKFGRVDVAVNCAGIAVASKTYNLKKGQTHTLEDFQRVLDVNLMGTFNVIRLVAGEMGQNEPDQGGQRGVIINTASVAAFEGQVGQAAYSASKGGIVGMTLPIARDLAPIGIRVMTIAPGLFGTPLLTSLPEKVCNFLASQVPFPSRLGDPAEYAHLVQAIIENPFLNGEVIRLDGAIRMQP
B7: Elongation factor 1-alpha 1: potential cIAP1 substrate (protein, UniProt P68104 2-462, looked up)
Elongation factor 1-alpha 1: GKEKTHINIVVIGHVDSGKSTTTGHLIYKCGGIDKRTIEKFEKEAAEMGKGSFKYAWVLDKLKAERERGITIDISLWKFETSKYYVTIIDAPGHRDFIKNMITGTSQADCAVLIVAAGVGEFEAGISKNGQTREHALLAYTLGVKQLIVGVNKMDSTEPPYSQKRYEEIVKEVSTYIKKIGYNPDTVAFVPISGWNGDNMLEPSANMPWFKGWKVTRKDGNASGTTLLEALDCILPPTRPTDKPLRLPLQDVYKIGGIGTVPVGRVETGVLKPGMVVTFAPVNVTTEVKSVEMHHEALSEALPGDNVGFNVKNVSVKDVRRGNVAGDSKNDPPMEAAGFTAQVIILNHPGQISAGYAPVLDCHTAHIACKFAELKEKIDRRSGKKLEDGPKFLKSGDAAIVDMVPGKPMCVESFSDYPPLGRFAVRDMRQTVAVGVIKAVDKKAAGAGKVTKSAQKAQKAK
B8: Isocitrate dehydrogenase [NADP], mitochondrial: potential cIAP1 substrate (protein, UniProt P48735 40-452, looked up)
Isocitrate dehydrogenase …: ADKRIKVAKPVVEMDGDEMTRIIWQFIKEKLILPHVDIQLKYFDLGLPNRDQTDDQVTIDSALATQKYSVAVKCATITPDEARVEEFKLKKMWKSPNGTIRNILGGTVFREPIICKNIPRLVPGWTKPITIGRHAHGDQYKATDFVADRAGTFKMVFTPKDGSGVKEWEVYNFPAGGVGMGMYNTDESISGFAHSCFQYAIQKKWPLYMSTKNTILKAYDGRFKDIFQEIFDKHYKTDFDKNKIWYEHRLIDDMVAQVLKSSGGFVWACKNYDGDVQSDILAQGFGSLGLMTSVLVCPDGKTIEAEAAHGTVTRHYREHQKGRPTSTNPIASIFAWTRGLEHRGKLDGNQDLIRFAQMLEKVCVETVESGAMTKDLAGCIHGLSNVKLNEHFLNTTDFLDTIKSNLDRALGRQ

T2 sequence (Q13490+P61081 fused): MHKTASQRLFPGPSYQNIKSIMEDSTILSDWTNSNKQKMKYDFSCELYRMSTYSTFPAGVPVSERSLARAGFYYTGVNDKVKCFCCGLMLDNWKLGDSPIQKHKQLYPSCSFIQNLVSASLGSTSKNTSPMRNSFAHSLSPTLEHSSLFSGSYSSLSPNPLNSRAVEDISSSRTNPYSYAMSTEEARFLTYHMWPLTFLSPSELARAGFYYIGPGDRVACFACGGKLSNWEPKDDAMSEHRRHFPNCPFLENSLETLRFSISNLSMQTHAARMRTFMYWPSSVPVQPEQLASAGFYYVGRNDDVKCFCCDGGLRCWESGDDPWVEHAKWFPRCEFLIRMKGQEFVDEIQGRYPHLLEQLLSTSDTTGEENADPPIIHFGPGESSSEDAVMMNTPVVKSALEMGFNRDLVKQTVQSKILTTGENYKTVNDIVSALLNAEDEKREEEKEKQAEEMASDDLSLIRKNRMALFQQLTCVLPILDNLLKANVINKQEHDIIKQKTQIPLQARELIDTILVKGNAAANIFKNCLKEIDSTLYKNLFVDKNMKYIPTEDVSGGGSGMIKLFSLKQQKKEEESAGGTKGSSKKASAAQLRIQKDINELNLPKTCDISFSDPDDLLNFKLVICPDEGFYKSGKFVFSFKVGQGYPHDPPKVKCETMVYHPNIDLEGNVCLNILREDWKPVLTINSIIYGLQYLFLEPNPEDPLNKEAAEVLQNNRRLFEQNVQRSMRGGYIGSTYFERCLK

The target of the first experiment is T1, XIAP (Homo sapiens, UniProt P61081+P98170).
T1 construct: The N-terminus (residues 1-434) of XIAP was then fused via a flexible Gly-Gly-Ser-Gly linker to the NEDD8 E2, Ubc12; GST (N, cleaved yes); made in house; host or cells: E. coli BL21 (DE3)
T1 sequence (P98170+P61081 fused): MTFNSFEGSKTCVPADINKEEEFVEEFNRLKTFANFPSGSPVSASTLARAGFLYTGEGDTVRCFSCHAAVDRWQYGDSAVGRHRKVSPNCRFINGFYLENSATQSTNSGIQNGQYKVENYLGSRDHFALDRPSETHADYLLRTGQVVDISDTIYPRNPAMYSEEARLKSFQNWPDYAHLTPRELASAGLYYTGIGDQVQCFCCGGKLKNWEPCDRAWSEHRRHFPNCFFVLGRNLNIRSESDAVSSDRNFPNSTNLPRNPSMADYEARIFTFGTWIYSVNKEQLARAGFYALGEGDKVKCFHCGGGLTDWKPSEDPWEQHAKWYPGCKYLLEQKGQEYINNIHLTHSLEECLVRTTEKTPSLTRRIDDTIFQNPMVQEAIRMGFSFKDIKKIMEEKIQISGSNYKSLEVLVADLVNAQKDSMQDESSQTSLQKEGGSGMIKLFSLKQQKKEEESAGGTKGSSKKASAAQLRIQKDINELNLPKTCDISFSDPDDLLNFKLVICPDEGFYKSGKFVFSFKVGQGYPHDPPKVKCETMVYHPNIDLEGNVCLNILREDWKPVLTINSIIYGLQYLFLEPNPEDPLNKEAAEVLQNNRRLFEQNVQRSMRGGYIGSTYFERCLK
As to the kind of experiment: SILAC mass spectrometry screen for XIAP substrates with NEDDylator^XIAP in apoptotic Jurkat cell lysate. The experiment is classed as biochemical. Particulars: Heavy lysate with Ubc12. The procedure: Jurkat cells were grown in media containing either light or heavy isotopes of lysine and arginine and induced to undergo apoptosis with STS. Light cell extracts were incubated with the respective catalytic tagging system for each of the two IAPs and the heavy extracts labeled only with the wild-type NEDD8 E2, Ubc12. 64 mg regular L-Lys and 83.6 mg L-Arg.HCl were added to 1 liter RPMI-1640 minus L-Lys and L-Arg (Thermo/Pierce), 10% fetal bovine serum (FBS) to generate “Light” medium. 100 mg ^13C6^15N2 L-Lys.2HCl and 86 mg ^13C6 L-Arg.HCl (Cambridge Isotope) were added to the same amount of medium to generate the “Heavy” medium. Jurkat cells were cultured separately in “Light” or “Heavy” medium for 7 days to allow for thorough isotope incorporation. For IAP substrate identification, 400 million cells were treated with 2 μM STS for 4 hours, harvested, lysed in M-PER mammalian protein extraction buffer (Thermo/Pierce) in the presence of protease inhibitors (100× ProteoBlock cocktail, Fermentas) and mixed with cell lysate prepared from 400 million untreated cells. The NEDDylated proteins were isolated under denaturing conditions via the HB-NEDD8 tag using a tandem affinity pull down procedure (Tagwerker et al., Mol Cell Proteomics 5:737-748 (2006)) (FIG. 11). Purified NEDDylated proteins were trypsinized and analyzed with tandem mass spectrometry (LC-MS/MS).
(§1) For SILAC experiments, Jurkat cells were cultured separately in “Light” (supplemented with regular Lys and Arg) or “Heavy” (supplemented with ^13C6^15N2 Lys and ^13C6 Arg) medium for 7 days to allow for thorough isotope incorporation. Apoptotic “Light” and “Heavy” cell extracts were prepared individually. The lysates were cleared by spinning and then diluted in 50 mM HEPES pH 7.4, 150 mM NaCl to 5 mg/ml and supplemented with 5 mM ATP, 10 mM MgCl2. Endogenous NEDD8 E1 is cell lysate was used to catalyze the reaction. HB-NEDD8 was added to both lysate at mass ratio 1:500; the catalytic tagging system was added to the “Light” lysate at mass ratio 1:1000. Equal molar of Ubc12 was added to the “Heavy” lysate. […] NEDDylated proteins were separated by one-dimensional SDS-PAGE, and trypsinized for LC-MS/MS analysis.
For liquid chromatography—Tandem mass spectrometry (LC-MS/MS) analysis, the tryptic peptides were first desalted and concentrated with a C18 Ziptip (Millipore). LC-MS/MS was carried out by reverse phase LC interfaced with a LTQ-Orbitrap (ThermoFisher Scientific) hybrid mass spectrometer. A nanoflow HPLC (NanoAcquity UPLC system, Waters Corporation) was equipped with a trap column (180 μm×20 mm, 5 μm SymmetryC18, from Waters) and an analytical column (100 μm×100 mm, 1.7 μm BEH130C18, from Waters). […]
On to B1, for which the “L/H (Light/Heavy ratio)” value was 4.35.

In the case of B2, the “L/H (Light/Heavy ratio)” value came out at 7.39.

Another experiment concerns the target T2, cIAP1 (Homo sapiens, UniProt P61081+Q13490).
T2 construct: cIAP1(ΔR) (residues 1-555); GST (N, cleaved yes); made in house; host or cells: E. coli BL21 (DE3)
As to the kind of experiment: SILAC mass spectrometry screen for cIAP1 substrates with NEDDylator^cIAP1 in apoptotic Jurkat cell lysate. The experiment is classed as biochemical. Particulars: Light lysate with NEDDylator^cIAP1, Heavy lysate with Ubc12. The procedure:
Jurkat cells were grown in media containing either light or heavy isotopes of lysine and arginine and induced to undergo apoptosis with STS. Light cell extracts were incubated with the respective catalytic tagging system for each of the two IAPs and the heavy extracts labeled only with the wild-type NEDD8 E2, Ubc12. […] 100 mg ^13C6^15N2 L-Lys.2HCl and 86 mg ^13C6 L-Arg.HCl (Cambridge Isotope) were added to the same amount of medium to generate the “Heavy” medium. Jurkat cells were cultured separately in “Light” or “Heavy” medium for 7 days to allow for thorough isotope incorporation. For IAP substrate identification, 400 million cells were treated with 2 μM STS for 4 hours, harvested, lysed in M-PER mammalian protein extraction buffer (Thermo/Pierce) in the presence of protease inhibitors (100× ProteoBlock cocktail, Fermentas) and mixed with cell lysate prepared from 400 million untreated cells. […] Purified NEDDylated proteins were trypsinized and analyzed with tandem mass spectrometry (LC-MS/MS).
as §1
For liquid chromatography—Tandem mass spectrometry (LC-MS/MS) analysis, the tryptic peptides were first desalted and concentrated with a C18 Ziptip (Millipore). LC-MS/MS was carried out by reverse phase LC interfaced with a LTQ-Orbitrap (ThermoFisher Scientific) hybrid mass spectrometer. A nanoflow HPLC (NanoAcquity UPLC system, Waters Corporation) was equipped with a trap column (180 μm×20 mm, 5 μm SymmetryC18, from Waters) and an analytical column (100 μm×100 mm, 1.7 μm BEH130C18, from Waters). Peptides were eluted over a linear gradient from 2% solvent A (0.1% formic acid in water) to 35% solvent B (0.1% formic acid in acetonitrile) at 350 nL/min over 35 min. MS and MS/MS spectra were acquired in a data-dependent mode with MS spectra acquired in the Orbitrap at 30,000 resolving power and 6 CID MS/MS spectra acquired per MS in the LTQ linear ion trap. Dynamic exclusion was set at 90 seconds to prevent repeated MS/MS on the same precursor ion.
The identified peptides were searched against a random decoy protein database for evaluating the false positive rates. […] The decoy peptides were removed from the data. Protein IDs were assigned only when at least two unique peptides were identified from the same protein. For SILAC experiment, Light/Heavy ratios for the identified peptides were calculated, using ProteinProspector. The media Light/Heavy ratios of all the peptides identified for each protein were used to represent the Light/Heavy ratio of the protein.
Take B3: the “L/H (Light/Heavy ratio)” value was determined as 5.67.

As for B4, the “L/H (Light/Heavy ratio)” value is on record as 4.35.

As to B5, the “L/H (Light/Heavy ratio)” value was determined as 6.17.

On to B6, for which the “L/H (Light/Heavy ratio)” value turned out to be 4.1.

With B7, the “L/H (Light/Heavy ratio)” value is 4.4.

With B2, the “L/H (Light/Heavy ratio)” value is on record as 53.4.

As for B8, the “L/H (Light/Heavy ratio)” value is 6.51.

For the origin of these results see patent publication US20150010525A1, “Catalytic Tagging System to Study Macro-Molecular Interactions Using Engineered Ubiquitin Ligase and Ubiquitin-Like Proteins to Facilitate Substrate Identification” (THE REGENTS OF THE UNIVERSITY OF CALIFORNIA, priority 2012, published 2015).
